T1: G9a and GLP (Homo sapiens, UniProt Q96KQ7+Q9H9B1)
T1 sequence (Q96KQ7 2-1210 limits assumed): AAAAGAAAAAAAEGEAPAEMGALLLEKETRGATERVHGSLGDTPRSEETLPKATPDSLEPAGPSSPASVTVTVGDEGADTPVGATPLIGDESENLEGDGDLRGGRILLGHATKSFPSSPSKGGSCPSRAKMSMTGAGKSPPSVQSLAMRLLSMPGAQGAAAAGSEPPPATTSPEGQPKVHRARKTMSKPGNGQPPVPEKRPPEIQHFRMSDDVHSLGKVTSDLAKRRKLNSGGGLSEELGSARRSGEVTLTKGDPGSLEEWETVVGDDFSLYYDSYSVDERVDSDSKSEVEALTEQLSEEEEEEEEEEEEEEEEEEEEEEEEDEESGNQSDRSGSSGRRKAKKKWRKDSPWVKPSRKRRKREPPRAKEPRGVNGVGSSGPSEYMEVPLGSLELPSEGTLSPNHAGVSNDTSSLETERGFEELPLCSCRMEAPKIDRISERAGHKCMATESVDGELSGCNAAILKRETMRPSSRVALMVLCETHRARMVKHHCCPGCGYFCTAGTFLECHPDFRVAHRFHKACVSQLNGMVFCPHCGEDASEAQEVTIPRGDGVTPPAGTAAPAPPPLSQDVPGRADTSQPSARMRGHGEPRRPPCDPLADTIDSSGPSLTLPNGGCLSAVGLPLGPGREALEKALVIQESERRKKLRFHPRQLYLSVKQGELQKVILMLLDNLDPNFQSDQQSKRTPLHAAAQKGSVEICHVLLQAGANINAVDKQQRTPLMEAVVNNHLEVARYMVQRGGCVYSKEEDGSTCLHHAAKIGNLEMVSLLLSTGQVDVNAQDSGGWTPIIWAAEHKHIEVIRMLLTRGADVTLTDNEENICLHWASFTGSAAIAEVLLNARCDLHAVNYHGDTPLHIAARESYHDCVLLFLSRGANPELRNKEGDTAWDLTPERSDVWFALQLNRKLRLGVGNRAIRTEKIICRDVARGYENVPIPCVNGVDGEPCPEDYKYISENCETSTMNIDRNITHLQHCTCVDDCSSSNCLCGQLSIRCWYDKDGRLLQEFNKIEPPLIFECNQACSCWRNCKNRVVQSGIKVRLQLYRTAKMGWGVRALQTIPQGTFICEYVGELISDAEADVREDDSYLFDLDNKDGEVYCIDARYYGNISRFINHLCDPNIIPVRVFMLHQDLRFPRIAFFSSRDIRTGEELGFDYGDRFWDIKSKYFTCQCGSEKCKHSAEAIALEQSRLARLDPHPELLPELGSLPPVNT
T1 sequence (Q9H9B1 2-1298 limits assumed): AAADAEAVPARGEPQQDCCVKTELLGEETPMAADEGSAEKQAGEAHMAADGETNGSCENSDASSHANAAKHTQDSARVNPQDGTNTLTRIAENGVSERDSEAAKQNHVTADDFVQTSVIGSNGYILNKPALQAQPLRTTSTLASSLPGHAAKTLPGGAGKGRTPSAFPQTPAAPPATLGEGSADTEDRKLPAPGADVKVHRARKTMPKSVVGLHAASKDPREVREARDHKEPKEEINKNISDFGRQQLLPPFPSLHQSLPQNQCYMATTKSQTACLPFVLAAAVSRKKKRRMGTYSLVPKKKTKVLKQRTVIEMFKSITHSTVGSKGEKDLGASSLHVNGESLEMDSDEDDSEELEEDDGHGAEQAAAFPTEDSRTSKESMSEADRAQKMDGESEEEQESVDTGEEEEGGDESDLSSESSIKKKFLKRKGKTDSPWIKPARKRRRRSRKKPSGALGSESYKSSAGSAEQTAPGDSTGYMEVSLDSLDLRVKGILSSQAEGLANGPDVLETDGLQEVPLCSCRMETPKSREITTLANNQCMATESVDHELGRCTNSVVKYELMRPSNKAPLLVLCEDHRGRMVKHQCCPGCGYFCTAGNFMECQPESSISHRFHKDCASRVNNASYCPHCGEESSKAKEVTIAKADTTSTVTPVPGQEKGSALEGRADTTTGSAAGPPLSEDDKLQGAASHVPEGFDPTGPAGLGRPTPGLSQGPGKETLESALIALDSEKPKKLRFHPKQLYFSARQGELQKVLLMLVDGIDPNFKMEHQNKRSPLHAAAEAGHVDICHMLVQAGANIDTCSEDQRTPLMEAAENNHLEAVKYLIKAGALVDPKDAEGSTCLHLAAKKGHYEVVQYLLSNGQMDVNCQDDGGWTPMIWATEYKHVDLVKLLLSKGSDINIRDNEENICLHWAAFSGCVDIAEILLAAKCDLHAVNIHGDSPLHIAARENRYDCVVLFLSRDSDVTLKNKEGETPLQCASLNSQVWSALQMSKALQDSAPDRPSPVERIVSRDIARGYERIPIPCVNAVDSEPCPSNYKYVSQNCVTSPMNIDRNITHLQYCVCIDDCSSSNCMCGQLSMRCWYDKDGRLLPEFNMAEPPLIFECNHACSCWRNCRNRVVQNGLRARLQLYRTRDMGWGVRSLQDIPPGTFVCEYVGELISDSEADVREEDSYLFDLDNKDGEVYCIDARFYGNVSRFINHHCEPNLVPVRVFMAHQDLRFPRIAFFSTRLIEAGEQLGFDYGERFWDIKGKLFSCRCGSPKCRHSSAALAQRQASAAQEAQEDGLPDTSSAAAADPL


Tests used:
[1] = target: T1, G9a and GLP; experiment: Triple SILAC pull-down after UNC0638 treatment of 293T cells, DMSO/UNC0638 ratio of protein captured by 3×MBT; format: cell-based; set-up: endogenous in cells; host or cells: HEK 293T; details: for Relative to UNC0638 UNC Heavy / Relative to UNC0638 UNC Light: SILAC ratio DMSO/UNC0638 of protein pulled down with 3xMBT; for Relative to UNC0638 UNC Heavy: UNC0638 in heavy SILAC media; for Relative to UNC0638 UNC Light: UNC0638 in light SILAC media; for Relative to UNC0638 Average: average of UNC Light and UNC Heavy experiments;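 for all read-outs here: mass spectrometry (Q-Exactive) SILAC quantitation, DMSO/UNC0638 ratio computed after subtracting 3×MBTD355N mutant pull-down background, only proteins with at least twofold 3×MBT over mutant signal considered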
[2] = system: 3×MBT domain of L3MBTL1; experiment: Triple SILAC pull-down, 3xMBT/3xMBTD355N ratio (cytoplasmic, nuclear and chromatin fractions of 293T cells); format: binding, human; details: SILAC ratio, pull-down 3xMBT vs 3xMBTD355N; for 3xMBT/D355N UNC Heavy: experiment with UNC0638 in heavy SILAC media; for 3xMBT/D355N UNC Light: experiment with UNC0638 in light SILAC media;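 for all read-outs here: proteins quantified with MaxQuant, requiring at least two unique peptides and quantification in both label directions, normalized to the mean of proteins from a digested loading control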

Molecule	Relative to UNC0638 UNC Heavy [1]	Relative to UNC0638 UNC Light [1]	Relative to UNC0638 Average [1]	3xMBT/D355N UNC Heavy [2]	3xMBT/D355N UNC Light [2]
PPP1R10 (protein, UniProt Q96QC0 1-940, looked up) Serine/threonine-protein …: MGSGPIDPKELLKGLDSFLNRDGEVKSVDGISKIFSLMKEARKMVSRCTYLNILLQTRSPEILVKFIDVGGYKLLNNWLTYSKTTNNIPLLQQILLTLQHLPLTVDHLKQNNTAKLVKQLSKSSEDEELRKLASVLVSDWMAVIRSQSSTQPAEKDKKKRKDEGKSRTTLPERPLTEVKAETRAEEAPEKKREKPKSLRTTAPSHAKFRSTGLELETPSLVPVKKNASTVVVSDKYNLKPIPLKRQSNVAAPGDATPPAEKKYKPLNTTPNATKEIKVKIIPPQPMEGLGFLDALNSAPVPGIKIKKKKKVLSPTAAKPSPFEGKTSTEPSTAKPSSPEPAPPSEAMDADRPGTPVPPVEVPELMDTASLEPGALDAKPVESPGDPNQLTRKGRKRKSVTWPEEGKLREYFYFELDETERVNVNKIKDFGEAAKREILSDRHAFETARRLSHDNMEEKVPWVCPRPLVLPSPLVTPGSNSQERYIQAEREKGILQELFLNKESPHEPDPEPYEPIPPKLIPLDEECSMDETPYVETLEPGGSGGSPDGAGGSKLPPVLANLMGSMGAGKGPQGPGGGGINVQEILTSIMGSPNSHPSEELLKQPDYSDKIKQMLVPHGLLGPGPIANGFPPGGPGGPKGMQHFPPGPGGPMPGPHGGPGGPVGPRLLGPPPPPRGGDPFWDGPGDPMRGGPMRGGPGPGPGPYHRGRGGRGGNEPPPPPPPFRGARGGRSGGGPPNGRGGPGGGMVGGGGHRPHEGPGGGMGNSSGHRPHEGPGGGMGSGHRPHEGPGGSMGGGGGHRPHEGPGGGISGGSGHRPHEGPGGGMGAGGGHRPHEGPGGSMGGSGGHRPHEGPGHGGPHGHRPHDVPGHRGHDHRGPPPHEHRGHDGPGHGGGGHRGHDGGHSHGGDMSNRPVCRHFMMKGNCRYENNCAFYHPGVNGPPLP	0.36 log base 2	0.37 log base 2	0.36 log base 2	4.73 log base 2	2.57 log base 2
RRM1 (protein, UniProt P23921 1-792, looked up) Ribonucleoside-diphosphate …: MHVIKRDGRQERVMFDKITSRIQKLCYGLNMDFVDPAQITMKVIQGLYSGVTTVELDTLAAETAATLTTKHPDYAILAARIAVSNLHKETKKVFSDVMEDLYNYINPHNGKHSPMVAKSTLDIVLANKDRLNSAIIYDRDFSYNYFGFKTLERSYLLKINGKVAERPQHMLMRVSVGIHKEDIDAAIETYNLLSERWFTHASPTLFNAGTNRPQLSSCFLLSMKDDSIEGIYDTLKQCALISKSAGGIGVAVSCIRATGSYIAGTNGNSNGLVPMLRVYNNTARYVDQGGNKRPGAFAIYLEPWHLDIFEFLDLKKNTGKEEQRARDLFFALWIPDLFMKRVETNQDWSLMCPNECPGLDEVWGEEFEKLYASYEKQGRVRKVVKAQQLWYAIIESQTETGTPYMLYKDSCNRKSNQQNLGTIKCSNLCTEIVEYTSKDEVAVCNLASLALNMYVTSEHTYDFKKLAEVTKVVVRNLNKIIDINYYPVPEACLSNKRHRPIGIGVQGLADAFILMRYPFESAEAQLLNKQIFETIYYGALEASCDLAKEQGPYETYEGSPVSKGILQYDMWNVTPTDLWDWKVLKEKIAKYGIRNSLLIAPMPTASTAQILGNNESIEPYTSNIYTRRVLSGEFQIVNPHLLKDLTERGLWHEEMKNQIIACNGSIQSIPEIPDDLKQLYKTVWEISQKTVLKMAAERGAFIDQSQSLNIHIAEPNYGKLTSMHFYGWKQGLKTGMYYLRTRPAANPIQFTLNKEKLKDKEKVSKEEEEKERNTAAMVCSLENRDECLMCGS	0.96 log base 2	−0.22 log base 2	0.37 log base 2	1.23 log base 2	0.94 log base 2

Second part, led by results:

Relative to UNC0638 UNC Heavy [1]	Relative to UNC0638 UNC Light [1]	Relative to UNC0638 Average [1]	Molecule	3xMBT/D355N UNC Heavy [2]	3xMBT/D355N UNC Light [2]
0.50 log base 2	0.26 log base 2	0.38 log base 2	SEPT7 (protein, UniProt Q16181 2-437, looked up) Septin-7: SVSARSAAAEERSVNSSTMVAQQKNLEGYVGFANLPNQVYRKSVKRGFEFTLMVVGESGLGKSTLINSLFLTDLYSPEYPGPSHRIKKTVQVEQSKVLIKEGGVQLLLTIVDTPGFGDAVDNSNCWQPVIDYIDSKFEDYLNAESRVNRRQMPDNRVQCCLYFIAPSGHGLKPLDIEFMKRLHEKVNIIPLIAKADTLTPEECQQFKKQIMKEIQEHKIKIYEFPETDDEEENKLVKKIKDRLPLAVVGSNTIIEVNGKRVRGRQYPWGVAEVENGEHCDFTILRNMLIRTHMQDLKDVTNNVHYENYRSRKLAAVTYNGVDNNKNKGQLTKSPLAQMEEERREHVAKMKKMEMEMEQVFEMKVKEKVQKLKDSEAELQRRHEQMKKNLEAQHKELEEKRRQFEDEKANWEAQQRILEQQNSSRTLEKNKKKGKIF	2.75 log base 2	2.54 log base 2
0.94 log base 2	−0.18 log base 2	0.38 log base 2	WDR70 (protein, UniProt Q9NW82 1-654, looked up) WD repeat-containing protein …: MERSGPSEVTGSDASGPDPQLAVTMGFTGFGKKARTFDLEAMFEQTRRTAVERSRKTLEAREKEEEMNREKELRRQNEDIEPTSSRSNVVRDCSKSSSRDTSSSESEQSSDSSDDELIGPPLPPKMVGKPVNFMEEDILGPLPPPLNEEEEEAEEEEEEEEEEENPVHKIPDSHEITLKHGTKTVSALGLDPSGARLVTGGYDYDVKFWDFAGMDASFKAFRSLQPCECHQIKSLQYSNTGDMILVVSGSSQAKVIDRDGFEVMECIKGDQYIVDMANTKGHTAMLHTGSWHPKIKGEFMTCSNDATVRTWEVENPKKQKSVFKPRTMQGKKVIPTTCTYSRDGNLIAAACQNGSIQIWDRNLTVHPKFHYKQAHDSGTDTSCVTFSYDGNVLASRGGDDSLKLWDIRQFNKPLFSASGLPTMFPMTDCCFSPDDKLIVTGTSIQRGCGSGKLVFFERRTFQRVYEIDITDASVVRCLWHPKLNQIMVGTGNGLAKVYYDPNKSQRGAKLCVVKTQRKAKQAETLTQDYIITPHALPMFREPRQRSTRKQLEKDRLDPLKSHKPEPPVAGPGRGGRVGTHGGTLSSYIVKNIALDKTDDSNPREAILRHAKAAEDSPYWVSPAYSKTQPKTMFAQVESDDEEAKNEPEWKKRKI	2.21 log base 2	2.93 log base 2
